{
  "source": "paper PMC5342210",
  "about": "“Staphylococcal protein Ecb impairs complement receptor-1 mediated recognition of opsonized bacteria” (PLoS ONE, 2017)",
  "key": {"[1]": {"molecular_target": "C3b (UniProt P01024)", "assay": "radioligand binding; C3b (5 ug/ml) coated on microtiter wells, blocked with 0.5% BSA; 125I-sCR1 (30,000 cpm) mixed with the unlabelled protein (0-0.33 uM) in 1/2 PBS with 0.1% BSA; 60 min, 37 C; bound radioactivity counted"}, "[2]": {"molecular_target": "T1, C3b (UniProt P01024)", "T1 construct": "complement C3 beta chain, as it stands in C3b; alpha'-chain of C3b, the cut product of the C3 alpha chain (here made with trypsin); the C3b was detected with anti-human C3 and anti-human C3c antibodies; also called solid-phase C3b; source: C3 purified from plasma; C3b prepared from C3 using trypsin", "assay": "radioligand binding; C3b (5 ug/ml) coated on microtiter wells, blocked with 0.5% BSA; 125I-sCR1 (30,000 cpm) mixed with the unlabelled protein (0-0.33 uM) in 1/2 PBS with 0.1% BSA; 60 min, 37 C; bound radioactivity counted", "settings": "both partners purified", "T1 sequence (P01024 23-667, chain 1 of 2)": "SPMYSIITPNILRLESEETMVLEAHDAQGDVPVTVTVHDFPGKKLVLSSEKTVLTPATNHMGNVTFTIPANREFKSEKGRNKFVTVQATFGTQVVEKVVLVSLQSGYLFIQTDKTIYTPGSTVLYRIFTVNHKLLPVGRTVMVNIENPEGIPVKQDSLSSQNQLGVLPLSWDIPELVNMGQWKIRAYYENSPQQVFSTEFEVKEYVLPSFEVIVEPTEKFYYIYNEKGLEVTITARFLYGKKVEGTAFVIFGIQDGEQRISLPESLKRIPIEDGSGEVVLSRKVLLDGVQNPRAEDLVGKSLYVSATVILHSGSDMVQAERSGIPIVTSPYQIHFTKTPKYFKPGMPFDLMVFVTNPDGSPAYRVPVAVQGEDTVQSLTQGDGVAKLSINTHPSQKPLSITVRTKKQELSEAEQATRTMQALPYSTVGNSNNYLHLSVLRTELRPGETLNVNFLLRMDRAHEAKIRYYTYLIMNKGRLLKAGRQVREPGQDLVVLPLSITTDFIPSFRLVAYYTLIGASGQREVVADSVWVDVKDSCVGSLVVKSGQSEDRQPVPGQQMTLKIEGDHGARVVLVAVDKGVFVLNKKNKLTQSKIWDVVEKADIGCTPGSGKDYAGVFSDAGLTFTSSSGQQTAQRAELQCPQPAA", "T1 sequence (P01024 749-1663, chain 2 of 2)": "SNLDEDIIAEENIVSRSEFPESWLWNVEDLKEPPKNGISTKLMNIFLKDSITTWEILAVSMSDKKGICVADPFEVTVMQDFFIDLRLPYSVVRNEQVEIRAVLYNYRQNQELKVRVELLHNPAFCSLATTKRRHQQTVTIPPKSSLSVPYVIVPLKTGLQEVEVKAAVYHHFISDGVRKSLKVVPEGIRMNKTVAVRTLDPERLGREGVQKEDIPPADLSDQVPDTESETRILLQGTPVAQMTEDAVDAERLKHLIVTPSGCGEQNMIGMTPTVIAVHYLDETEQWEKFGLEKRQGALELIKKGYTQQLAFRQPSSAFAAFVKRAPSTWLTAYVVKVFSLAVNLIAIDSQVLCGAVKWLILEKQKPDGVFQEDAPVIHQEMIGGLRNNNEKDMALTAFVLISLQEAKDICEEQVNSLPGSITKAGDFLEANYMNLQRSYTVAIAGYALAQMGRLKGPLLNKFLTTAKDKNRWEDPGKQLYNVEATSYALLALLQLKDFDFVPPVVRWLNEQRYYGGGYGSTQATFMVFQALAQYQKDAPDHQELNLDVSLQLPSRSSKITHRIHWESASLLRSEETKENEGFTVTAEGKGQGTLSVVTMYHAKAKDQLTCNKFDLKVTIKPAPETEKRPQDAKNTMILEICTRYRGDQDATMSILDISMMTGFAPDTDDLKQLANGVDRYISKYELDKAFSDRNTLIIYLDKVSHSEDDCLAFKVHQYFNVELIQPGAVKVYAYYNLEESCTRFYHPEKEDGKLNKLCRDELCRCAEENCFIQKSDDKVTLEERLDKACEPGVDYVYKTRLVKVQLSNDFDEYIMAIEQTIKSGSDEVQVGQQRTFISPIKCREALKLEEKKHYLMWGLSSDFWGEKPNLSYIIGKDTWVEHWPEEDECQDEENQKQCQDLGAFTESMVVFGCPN"}},
  "data": [
    {"molecule": "Extracellular complement binding protein (Ecb) (natural protein)", "values": [
      {"measurement": "percent inhibition of sCR1 binding to C3b", "setting": "[1]", "value": 80, "unit": "%"}
    ]},
    {"molecule": "Factor H (FH) (natural protein, complement factor H, plasma regulator; source: purified from plasma) EDCNELPPRRNTEILTGSWSDQTYPEGTQAIYKCRPGYRSLGNVIMVCRKGEWVALNPLRKCQKRPCGHPGDTPFGTFTLTGGNVFEYGVKAVYTCNEGYQLLGEINYRECDTDGWTNDIPICEVVKCLPVTAPENGKIVSSAMEPDREYHFGQAVRFVCNSGYKIEGDEEMHCSDDGFWSKEKPKCVEISCKSPDVINGSPISQKIIYKENERFQYKCNMGYEYSERGDAVCTESGWRPLPSCEEKSCDNPYIPNGDYSPLRIKHRTGDEITYQCRNGFYPATRGNTAKCTSTGWIPAPRCTLKPCDYPDIKHGGLYHENMRRPYFPVAVGKYYSYYCDEHFETPSGSYWDHIHCTQDGWSPAVPCLRKCYFPYLENGYNQNYGRKFVQGKSIDVACHPGYALPKAQTTVTCMENGWSPTPRCIRVKTCSKSSIDIENGFISESQYTYALKEKAKYQCKLGYVTADGETSGSITCGKDGWSAQPTCIKSCDIPVFMNARTKNDFTWFKLNDTLDYECHDGYESNTGSTTGSIVCGYNGWSDLPICYERECELPKIDVHLVPDRKKDQYKVGEVLKFSCKPGFTIVGPNSVQCYHFGLSPDLPICKEQVQSCGPPPELLNGNVKEKTKEEYGHSEVVEYYCNPRFLMKGPNKIQCVDGEWTTLPVCIVEESTCGDIPELEHGWAQLSSPPYYYGDSVEFNCSESFTMIGHRSITCIHGVWTQLPQCVAIDKLKKCKSSNLIILEEHLKNKKEFDHNSNIRYRCRGKEGWIHTVCINGRWDPEVNCSMAQIQLCPPPPQIPNSHNMTTTLNYRDGEKVSVLCQENYLIQEGEEITCKDGRWQSIPLCVEKIPCSQPPQIEHGTINSSRSSQESYAHGTKLSYTCEGGFRISEENETTCYMGKWSSPPQCEGLPCKSPPEISHGVVAHMSDSYQYGEEVTYKCFEGFGIDGPAIAKCLGEKWSHPPSCIKTDCLSLPSFENAIPMGEKKDVYKAGEQVTYTCATYYKMDGASNVTCINSRWTGRPTCRDTSCVNPPTVQNAYIVSRQMSKYPSGERVRYQCRSPYEMFGDEEVMCLNGNWTEPPQCKDSTGKCGPPPPIDNGDITSFPLSVYAPASSVEYQCQNLYQLEGNKRITCRNGQWSEPPKCLHPCVISREIMENYNIALRWTAKQKLYSRTGESVEFVCKRGYRLSSRSHTLRTTCWDGKLEYPTCAKR", "values": [
      {"measurement": "binding result", "setting": "[2]", "value": "binds"}
    ]}
  ]
}
